# Source: publication PMC7311640, “The Beta Subunit of Non-bifurcating NADH-Dependent [FeFe]-Hydrogenases Differs From Those of Multimeric Electron-Bifurcating [FeFe]-Hydrogenases” (Frontiers in Microbiology, 2020)
# B1: αβ heterodimer of Syntrophus aciditrophicus HydAB (His-HydA with HydB) (complex)
# chain 1: MEEHMSSINLTVNNIDVEVEAGATLYQAAQKAGVNIPTLCAWFDKDHTPGACRVCVVEVEGMPSLAASCAYPAQNGMKVFTNSDKVRQARKMIVELILASHPQECNFCVRNGNCELQKVAEMVGVKNIRYDSEEFDRDRELDTSSPAIVRDSSKCINCRRCVTVCESIQTVAALSPMNRGYESTVSPAFNLPLNETNCVNCGQCVMACPVGALYEKDQVDEVWKALQDPTRHVVVQEAPAIRAALGEEFGMPPGSLVTGKMIAALRRLGFDKVFDTNFTADLTIIEEGNELLKRVKEGGTLPMITSCSPGWIKFCEHFYPDLLGHLSTCKSPQQMFGALAKTYYAQVSGIDPANIFSVSIMPCTAKKYEAQRPEMKSSGYQDVDVVLTTRELARMIKEAGIDFVNLPDEKYDDPMGEYTGAATIFGATGGVMEAALRTVYAVVTGEELSDLNIMPVRGLEGVKAAAVPVGALGDVKVAVAHGLGNARKLLDEIRAGKSEYAFIEVMCCPGGCVAGGGEPIPTTDEIRMLRAGALYRDDGEVQQYRQSHQSPPVKAVYEKFLKEPLGHKSHELLHTHYVQRGQSLPHLDASPAGEKETVEAMCEKD
# chain 2: MITVQDIENVIAARGNAREHLMAILRDLENLSGRNVLDVSVLNTLAMKMDLPQSAISGFTSFYTMFSTEPRAKFIIRVCKSGPCHVMGARTIFDVIENHLGIRAGETTADGLFHLEECECLGLCSAAPAMMVNYDMHGNLSESNIKEILDSYSAREPAFKAEYGPGIEGRAVIINNSQQTRRLLENVGKVDPASIESYLQNGGYEAARKAFAEYSPEQVIGIVKDSGLRGRGGAGFPVGVKWSFVPKGEMQKYVICNADEGEPGTFKDRVLMEENPQQLIEGMLLCGYAIGATLGYIYVRGEYRRSIERLQSAIDQARAKGFLGKKIFGSNFDFDIFVKEGGGAYVCGEETSLINSMEGKRGYPRVRPPFPAAAGFMGMPSNVNNVETLSSIPMIVARGADWFKSVGTATCAGTKLYCLSGKVNQTGLVELPMGATLRQMIDTFGGGMKSGSSFKFAQVGGAAGGILGADLMDLPLDIDSTIKAGVTLGSGVVLVCDQETCAVDFLLNVLNFFEHESCGQCIPCKLGTSQLHYVAQKFAMREAEEKDIQLMIDTAKMMKLASLCALGQSPILPIETMIRNFREEFVKHCDPDYECPQCDASLQAYYL
# notes: HydA, [FeFe]-hydrogenase alpha subunit, Syntrophus aciditrophicus, locus tag SYN_01370; as the chain of m1; HydB, [FeFe]-hydrogenase beta subunit, Syntrophus aciditrophicus, locus tag SYN_01369; as the chain of m2; Unit of the α2β2 heterotetramer found by size exclusion chromatography; also called HydAB fraction; 144 kDa αβ heterodimer; source: E. coli BL21(DE3), co-expressed with maturation genes
# Molecular target: the molecule itself
# Test: SEC; purified HydAB fraction on Superdex 200 10/300 GL calibrated with gel filtration standards
protein,measurement,value
B1,stoichiometry N,2
